One molecule from patent US20250051433A1 (INMAGENE PTE, published 2025) can be followed below.

Experiment [1] addresses T1, mouse long-form TSLP protein (ACRO, tsp-m52h8) (mouse, UniProt Q9JIE6 20-140).
T1 construct: Bought; also called mouse TSLP
T1 sequence (looked up): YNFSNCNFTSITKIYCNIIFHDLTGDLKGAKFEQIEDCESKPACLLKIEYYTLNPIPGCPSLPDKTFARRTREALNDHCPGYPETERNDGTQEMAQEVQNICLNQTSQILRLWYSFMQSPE
In words: ELISA on coated mouse long-form TSLP. (In general: An ELISA detects its analyte on a solid surface through an enzyme-linked reagent.)

The target of experiment [2] is T2, human long form TSLP expressed on cell membrane.
T2 construct: also called membrane long-form huTSLP fusion protein; membrane long-form TSLP fusion protein
The experiment in a line: FACS on cells expressing the membrane human long-form TSLP fusion protein, MFI; unit taken from the concentration axis.

For experiment [3], the target named is T2, human long form TSLP expressed on cell …. The description is as above. The source holds these as a separate data set.
The target is the same in experiment [4]. Described as above. This is another data set of the same source.
The target is the same in experiment [5]. The description is as above. This is another data set of the same source.
Experiment [6] has as its target T3, membrane short-form huTSLP fusion protein (human).
T3 construct: also called human short form TSLP expressed on cell membrane
The experiment in a line: FACS on cells expressing membrane short-form huTSLP, MFI; ambiguous fit of a flat curve (Bottom 778.2, Top 872.2), see non_binding; unit taken from the concentration axis.

Experiment [7] deals with T2, human long form TSLP expressed on cell …. The experiment in a line: FACS on cells expressing the membrane human long-form TSLP fusion protein, MFI; rising binding curve, but the table column is headed IC50; unit taken from the concentration axis.
For experiment [8], the target named is T4, cynomolgus long-form TSLP protein (ACRO, tsp-c52h8) (cynomolgus monkey, UniProt A0A7N9CAT7 29-159).
T4 construct: also called monkey long-form TSLP; Cyno TSLP
T4 sequence: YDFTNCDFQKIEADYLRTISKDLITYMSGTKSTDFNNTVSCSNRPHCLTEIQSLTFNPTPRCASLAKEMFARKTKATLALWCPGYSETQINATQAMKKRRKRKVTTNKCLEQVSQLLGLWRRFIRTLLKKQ
In words: ELISA on coated cynomolgus long-form TSLP, OD450; curve still rising at the highest concentration (about 1.2 at about 20 µg/mL, fitted Top 1.343); unit taken from the concentration axis.

T2 sequence (chain, as listed by the source): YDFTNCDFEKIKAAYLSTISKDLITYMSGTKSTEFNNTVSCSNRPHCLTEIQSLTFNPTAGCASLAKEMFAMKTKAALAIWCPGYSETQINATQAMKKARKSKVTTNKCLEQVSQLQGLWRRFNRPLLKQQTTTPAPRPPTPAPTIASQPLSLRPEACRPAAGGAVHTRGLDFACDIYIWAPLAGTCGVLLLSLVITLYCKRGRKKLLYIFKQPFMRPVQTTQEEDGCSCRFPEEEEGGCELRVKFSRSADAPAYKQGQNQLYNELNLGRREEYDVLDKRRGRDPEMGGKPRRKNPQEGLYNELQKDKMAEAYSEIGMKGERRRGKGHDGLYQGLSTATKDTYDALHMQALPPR
T3 sequence (chain, as listed by the source limits assumed): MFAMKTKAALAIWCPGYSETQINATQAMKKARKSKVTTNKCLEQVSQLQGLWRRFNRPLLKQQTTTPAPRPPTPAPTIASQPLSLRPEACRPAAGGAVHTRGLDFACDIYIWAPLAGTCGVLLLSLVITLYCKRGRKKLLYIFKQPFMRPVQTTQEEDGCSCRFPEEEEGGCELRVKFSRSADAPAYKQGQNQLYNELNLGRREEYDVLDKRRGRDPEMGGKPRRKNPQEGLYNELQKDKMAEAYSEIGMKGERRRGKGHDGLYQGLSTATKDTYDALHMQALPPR

B1: AMG 157 (antibody, human IgG2, lambda, V domains shown)
VH: QMQLVESGGGVVQPGRSLRLSCAASGFTFRTYGMHWVRQAPGKGLEWVAVIWYDGSNKHYADSVKGRFTITRDNSKNTLNLQMNSLRAEDTAVYYCARAPQWELVHEAFDIWGQGTMVTVSS
VL: SYVLTQPPSVSVAPGQTARITCGGNNLGSKSVHWYQQKPGQAPVLVVYDDSDRPSWIPERFSGSNSGNTATLTISRGEAGDEADYYCQVWDSSSDHVVFGGGTKLTVLG
notes: also called BMK; benchmark
One may read the EC50 as the concentration at which the effect is half-maximal. Read a low EC50 as higher potency in that assay. As to B1, in experiment [1], the binding result is “no binding (tested: about 20 µg/mL)”. For the same molecule, the EC50 in experiment [2] is 0.219 µg/mL; in experiment [3] it was 0.156 µg/mL; in experiment [4], 0.0712 µg/mL; in experiment [5], 0.0466 µg/mL; in experiment [6] it was ~13.5 µg/mL; in experiment [7] it was 0.515 µg/mL. The same molecule returned an EC50 in experiment [8] of 1.24 µg/mL.
